B1: DNA-binding protein Ikaros (Homo sapiens), Q13422-1 (parent)
chain: MDADEGQDMSQVSGKESPPVSDTPDEGDEPMPIPEDLSTTSGGQQSSKSDRVVASNVKVETQSDEENGRACEMNGEECAEDLRMLDASGEKMNGSHRDQGSSALSGVGGIRLPNGKLKCDICGIICIGPNVLMVHKRSHTGERPFQCNQCGASFTQKGNLLRHIKLHSGEKPFKCHLCNYACRRRDALTGHLRTHSVGKPHKCGYCGRSYKQRSSLEEHKERCHNYLESMGLPGTLYPVIKEETNHSEMAEDLCKIGSERSLVLDRLASNVAKRKSSMPQKFLGDKGLSDTPYDSSASYEKENEMMKSHVMDQAINNAINYLGAESLRPLVQTPPGGSEVVPVISPMYQLHKPLAEGTPRSNHSAQDSAVENLLLLSKAKLVPSEREASPSNSCQDSTDTESNNEEQRSGLIYLTNHIAPHARNGLSLKEEHRAYDLLRAASENSQDALRVVSTSGEQMKVYKCEHCRVLFLDHVMYTIHMGCHGFRDPFECNMCGYHSQDRYEFSSHITRGEHRFHMS
B2: Zinc finger protein Aiolos (Homo sapiens), Q9UKT9 (parent)
chain: MEDIQTNAELKSTQEQSVPAESAAVLNDYSLTKSHEMENVDSGEGPANEDEDIGDDSMKVKDEYSERDENVLKSEPMGNAEEPEIPYSYSREYNEYENIKLERHVVSFDSSRPTSGKMNCDVCGLSCISFNVLMVHKRSHTGERPFQCNQCGASFTQKGNLLRHIKLHTGEKPFKCHLCNYACQRRDALTGHLRTHSVEKPYKCEFCGRSYKQRSSLEEHKERCRTFLQSTDPGDTASAEARHIKAEMGSERALVLDRLASNVAKRKSSMPQKFIGEKRHCFDVNYNSSYMYEKESELIQTRMMDQAINNAISYLGAEALRPLVQTPPAPTSEMVPVISSMYPIALTRAEMSNGAPQELEKKSIHLPEKSVPSERGLSPNNSGHDSTDTDSNHEERQNHIYQQNHMVLSRARNGMPLLKEVPRSYELLKPPPICPRDSVKVINKEGEVMDVYRCDHCRVLFLDYVMFTIHMGCHGFRDPFECNMCGYRSHDRYEFSSHIARGEHRALLK

Variants of: B1
Details: with crbn_human CRBN

| Variant | effect of a mutation on the interaction |
| --- | --- |
| Q146H | decreasing interaction strength |

Variants of: B2
Details: with crbn_human CRBN

| Variant | effect of a mutation on the interaction |
| --- | --- |
| Q147H | decreasing interaction strength |

— IntAct's records for PubMed 24292623
